# Measurements as given in PMC314469, “Protein Interaction Networks by Proteome Peptide Scanning” (PLoS Biology, 2004).
# Target: T1, Boi1 SH3 (BOI1_YEAST), P38041
# T1 chain: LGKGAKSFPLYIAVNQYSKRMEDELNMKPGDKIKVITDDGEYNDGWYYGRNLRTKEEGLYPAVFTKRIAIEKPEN
# Test: SPOT array
row,Binder,"normalised SPOT signal, Boehringer light units (BLU); mean over the file's lines of this peptide"
1,FYYPESPTKNLRPR [YML119W 56-69],867
2,GAPPTTPSRPRTTT [YGR170W 91-104],0
3,FYEPLDPQKDKDMT [YJL155C 176-189],71.3
4,GGDPTKPVRTWNDL [YEL056W 193-206],31.1
5,GAPPPPPHKDHLSD [YMR280C 206-219],104
6,GHTPQFPTKDEVSS [YNR031C 1516-1529],25.2
7,GGQPPVPVRMQPQP [YBR108W 379-392],85.9
8,FWNPENPYKFVHPR [YEL011W 171-184],169
9,FVIPGVPSKSYSLF [YGR065C 310-323],94
10,FVPPNLPMRRFKEI [YNL047C 421-434],11000
11,GAKPKIPSKLYQSV [YBR138C 124-137],68.4

# Further lines, results first:
row,"normalised SPOT signal, Boehringer light units (BLU); mean over the file's lines of this peptide",Binder
1,96.3,FVLPSLPRKNTYKV [YOR034C 343-356]
2,69.6,GIHPGFPIRMVQYA [YPL025C 36-49]
3,115,GIKPQQPIKVDIKG [YPL105C 573-586]
4,94.3,GAIPRGPKKDDASF [YPR161C 424-437]
5,128,GGPPLLPQKSAAFQ [YPL084W 731-744]
6,898,FVSPRIPSRIVKNG [YOR086C 892-905]

# Target: T2, Boi2 SH3 (BOI2_YEAST), P39969
# T2 chain: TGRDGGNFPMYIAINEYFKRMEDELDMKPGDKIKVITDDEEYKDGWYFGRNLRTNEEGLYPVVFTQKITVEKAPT
# Test: SPOT array
row,Binder,"normalised SPOT signal, Boehringer light units (BLU); mean over the file's lines of this peptide"
1,FYYPESPTKNLRPR [YML119W 56-69],44.1
2,GAPPTTPSRPRTTT [YGR170W 91-104],78.2
3,FYEPLDPQKDKDMT [YJL155C 176-189],19.8
4,GGDPTKPVRTWNDL [YEL056W 193-206],42.7
5,GAPPPPPHKDHLSD [YMR280C 206-219],17.2
6,GHTPQFPTKDEVSS [YNR031C 1516-1529],31.7
7,GGQPPVPVRMQPQP [YBR108W 379-392],89.9
8,FWNPENPYKFVHPR [YEL011W 171-184],55.6
9,FVIPGVPSKSYSLF [YGR065C 310-323],48.3
10,FVPPNLPMRRFKEI [YNL047C 421-434],160
11,GAKPKIPSKLYQSV [YBR138C 124-137],76.3

# The remaining lines, values ahead:
row,"normalised SPOT signal, Boehringer light units (BLU); mean over the file's lines of this peptide",Binder
1,20.4,FVLPSLPRKNTYKV [YOR034C 343-356]
2,114,GIHPGFPIRMVQYA [YPL025C 36-49]
3,41,GIKPQQPIKVDIKG [YPL105C 573-586]
4,5.7,GAIPRGPKKDDASF [YPR161C 424-437]
5,2,GGPPLLPQKSAAFQ [YPL084W 731-744]
6,1080,FVSPRIPSRIVKNG [YOR086C 892-905]

# Target: T3, Rvs167 SH3 (RV167_YEAST), P39743
# T3 chain: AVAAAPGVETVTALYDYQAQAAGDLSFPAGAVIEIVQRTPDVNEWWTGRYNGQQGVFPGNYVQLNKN
# Test: SPOT array
row,Binder,"normalised SPOT signal, Boehringer light units (BLU); mean over the file's lines of this peptide"
1,FYYPESPTKNLRPR [YML119W 56-69],28.6
2,GAPPTTPSRPRTTT [YGR170W 91-104],366
3,FYEPLDPQKDKDMT [YJL155C 176-189],14.1
4,GGDPTKPVRTWNDL [YEL056W 193-206],16.4
5,GAPPPPPHKDHLSD [YMR280C 206-219],75.6
6,GHTPQFPTKDEVSS [YNR031C 1516-1529],22.1
7,GGQPPVPVRMQPQP [YBR108W 379-392],794
8,FWNPENPYKFVHPR [YEL011W 171-184],67.7
9,FVIPGVPSKSYSLF [YGR065C 310-323],0
10,FVPPNLPMRRFKEI [YNL047C 421-434],11800
11,GAKPKIPSKLYQSV [YBR138C 124-137],42.7

# Next, values leading:
row,"normalised SPOT signal, Boehringer light units (BLU); mean over the file's lines of this peptide",Binder
1,16.4,FVLPSLPRKNTYKV [YOR034C 343-356]
2,24.6,GIHPGFPIRMVQYA [YPL025C 36-49]
3,38.7,GIKPQQPIKVDIKG [YPL105C 573-586]
4,48.1,GAIPRGPKKDDASF [YPR161C 424-437]
5,28.4,GGPPLLPQKSAAFQ [YPL084W 731-744]
6,10100,FVSPRIPSRIVKNG [YOR086C 892-905]

# Target: T4, Yfr024 SH3 (LSB3_YEAST), P43603
# T4 chain: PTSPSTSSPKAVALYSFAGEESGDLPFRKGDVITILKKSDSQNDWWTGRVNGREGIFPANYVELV
# Test: SPOT array
row,Binder,"normalised SPOT signal, Boehringer light units (BLU); mean over the file's lines of this peptide"
1,FYYPESPTKNLRPR [YML119W 56-69],292
2,GAPPTTPSRPRTTT [YGR170W 91-104],13900
3,FYEPLDPQKDKDMT [YJL155C 176-189],121
4,GGDPTKPVRTWNDL [YEL056W 193-206],203
5,GAPPPPPHKDHLSD [YMR280C 206-219],47.2
6,GHTPQFPTKDEVSS [YNR031C 1516-1529],19.8
7,GGQPPVPVRMQPQP [YBR108W 379-392],6010
8,FWNPENPYKFVHPR [YEL011W 171-184],524
9,FVIPGVPSKSYSLF [YGR065C 310-323],44.7
10,FVPPNLPMRRFKEI [YNL047C 421-434],25900
11,GAKPKIPSKLYQSV [YBR138C 124-137],313

# Results, then the binder that gave them:
row,"normalised SPOT signal, Boehringer light units (BLU); mean over the file's lines of this peptide",Binder
1,4240,FVLPSLPRKNTYKV [YOR034C 343-356]
2,331,GIHPGFPIRMVQYA [YPL025C 36-49]
3,103,GIKPQQPIKVDIKG [YPL105C 573-586]
4,225,GAIPRGPKKDDASF [YPR161C 424-437]
5,7090,GGPPLLPQKSAAFQ [YPL084W 731-744]
6,34100,FVSPRIPSRIVKNG [YOR086C 892-905]

# Target: T5, Yhr016c SH3 (YSC84_YEAST), P32793
# T5 chain: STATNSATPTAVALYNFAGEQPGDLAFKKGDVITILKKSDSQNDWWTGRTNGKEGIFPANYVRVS
# Test: SPOT array
row,Binder,"normalised SPOT signal, Boehringer light units (BLU); mean over the file's lines of this peptide"
1,FYYPESPTKNLRPR [YML119W 56-69],36.3
2,GAPPTTPSRPRTTT [YGR170W 91-104],9930
3,FYEPLDPQKDKDMT [YJL155C 176-189],129
4,GGDPTKPVRTWNDL [YEL056W 193-206],170
5,GAPPPPPHKDHLSD [YMR280C 206-219],154
6,GHTPQFPTKDEVSS [YNR031C 1516-1529],266
7,GGQPPVPVRMQPQP [YBR108W 379-392],1930
8,FWNPENPYKFVHPR [YEL011W 171-184],248
9,FVIPGVPSKSYSLF [YGR065C 310-323],66.7
10,FVPPNLPMRRFKEI [YNL047C 421-434],23200
11,GAKPKIPSKLYQSV [YBR138C 124-137],-0

# Other lines, results leading:
row,"normalised SPOT signal, Boehringer light units (BLU); mean over the file's lines of this peptide",Binder
1,75.7,FVLPSLPRKNTYKV [YOR034C 343-356]
2,154,GIHPGFPIRMVQYA [YPL025C 36-49]
3,153,GIKPQQPIKVDIKG [YPL105C 573-586]
4,236,GAIPRGPKKDDASF [YPR161C 424-437]
5,119,GGPPLLPQKSAAFQ [YPL084W 731-744]
6,9870,FVSPRIPSRIVKNG [YOR086C 892-905]
